Test results published in patent US20140057807A1 (UNIVERSITY OF CHICAGO, published 2014).

B1: SEQ ID NO 221 (designed binder)
chain: VSDVPRDLEVVAATPTSLLISWDAPAVTVRKYQIYYYYSAYVKESQEFTVPGSKSTATISGLKPGVSYNIAVYAVSKSRYQPPISINYRT
B2: SEQ ID NO 235 (designed binder)
chain: VSDVPRDLEVVAATPTSLLISWDAPAVTVRDYWIYYRYSWPYGSQEFTVPGSKSTATISGLKPGVTYDIQVEAVYGSESGPISINYRT
B3: SEQ ID NO 219 (designed binder)
chain: VSDVPRDLEVVAATPTSLLISWDAPAVTVRRYYIGYNWQSPAWNQEFTVPGSKSTATISGLKPGVYYQIYVAAVLRYGDYAPISINYRT
B4: SEQ ID NO 211 (designed binder)
chain: VSDVPRDLEVVAATPTSLLISWDAPAVTVRTYWIVYYRSVYSNGQEFTVPGSKSTATISGLKPGVIYSIRVIAVSYYYYGPISINYRT
B5: SEQ ID NO 220 (designed binder)
chain: VSDVPRDLEVVAATPTSLLISWDAPAVTVRSYSIGYFGAYRNWVQEFTVPGSKSTATISGLKPGVTYYIEVYAVYSNPVYPISINYRT
B6: SEQ ID NO 212 (designed binder)
chain: VSDVPRDLEVVAATPTSLLISWDAPAVTVRTYSISYSFGLDYEYDQEFTVPGSKSTATISGLKPGVQYYIVVDAVAGWQYYPISINYRT
B7: SEQ ID NO 215 (designed binder)
chain: VSDVPRDLEVVAATPTSLLISWDAPAVTVRTYVISYMSYDAQGGQNQEFTVPGSKSTATISGLKPGVAYNIIVSAVGGGQQAVPISINYRT
B8: SEQ ID NO 236 (designed binder)
chain: VSDVPRDLEVVAATPTSLLISWDAPAVTVRYYYGIYYAGKAGGDYFITQEFTVPGSKSTATISGLKPGVEYRIYVAAVGYHYTPPISINYRT
B9: SEQ ID NO 223 (designed binder)
chain: VSDVPRDLEVVAATPTSLLISWDAPAVTVRTYTIWYVQRYAYSQEFTVPGSKSTATISGLKPGVSYSISVRAVSTDRYYPISINYRT
B10: SEQ ID NO 208 (designed binder)
chain: VSDVPRDLEVVAATPTSLLISWDAPAVTVRKYSIYYFSSYSGIAQEFTVPGSKSTATISGLKPGVYYGIYVEAVYHHYSPPISINYRT
B11: SEQ ID NO 209 (designed binder)
chain: VSDVPRDLEVVAATPTSLLISWDAPAVTVRNYYIQYMVNYNDTQEFTVPGSKSTATISGLKPGVYYDIKVAAVYVAEDRPISINYRT
B12: SEQ ID NO 231 (designed binder)
chain: VSDVPRDLEVVAATPTSLLISWDAPAVTVRKYYIGYKLQVMEPDQEFTVPGSKSTATISGLKPGVEYWIGVDAVSYYWGFDPISINYRT
B13: SEQ ID NO 218 (designed binder)
chain: VSDVPRDLGVVAATPTSLRISWDAPAVTVRSYDIYYWYTTGGSQEFTVPGSKSTATISGLKPGVMYNIYVTAVDADVGGPISINYRT
B14: SEQ ID NO 242 (designed binder)
chain: NVSPPRRARVTDATETTITISWRTKTETITYFTVDAAPSLVVDNIQRTIKPDVRSYTITGLQPGTYYIILLYTLYNYDALPVVIDAST
B15: SEQ ID NO 226 (designed binder)
chain: VSDVPRDLEVVAATPTSLLISWDAPAVTVRYHSIGYNYYGMYQEFTVPGSKSTATISGLKPGVYYYIYVRAVTGREAAPISINYRT
B16: SEQ ID NO 228 (designed binder)
chain: VSDVPRDLEVVAATPTSLLISWDAPAVTVRSYKISYYGYHWVYQEFTVPGSKSTATISGLKPGVSYLISVSAVDYYGVLPISINYRT
B17: SEQ ID NO 250 (designed binder)
chain: NVSPPRRARVTDATETTITISWRTKTETITQFSVYAYPARSKYHIQRTIKPDVRSYTITGLQPGTGYRIYLQTLGGYSDEPVVIDAST
B18: SEQ ID NO 244 (designed binder)
chain: NVSPPRRARVTDATETTITISWRTKTETITRFFVSAVPFETGTIQRTIKPDVRSYTITGLQPGTAYDIALYTLFGYYYYPVVIDAST
B19: SEQ ID NO 222 (designed binder)
chain: VSDVPRDLEVVAATPTSLLTSWDAPAVTVRNYAIYYYDDDTGRQEFTVPGSKSTATISGLKPGVDYYIGVEAVWYWVSSPISINYRT
B20: SEQ ID NO 248 (designed binder)
chain: NVSPPRRARVTDATETTITISWRTKTETITYFGVGADPAMYIEYPYIQRTIKPDVRSYTITGLQPGTQYGIYLTTLSQASDYPVVIDAST
B21: SEQ ID NO 241 (designed binder)
chain: NVSPPRRARVTDATETTITISWRTKTETITSFNVVAYPSSQDGIQRTIKPDVRSYTITGLQPGTGYQIHLTTLGHLSFSPVVIDAST
B22: SEQ ID NO 230 (designed binder)
chain: VSDVPRDLEVVAATPTSLLISWDAPAVTVRNYYIGYRYTVANWCYQEFTVPGSKSTATISGLKPGVSYWITAKAVVFEGDHPISINYRT
B23: SEQ ID NO 214 (designed binder)
chain: VSDVPRDLEVVAATPTSLLISWDAPAVTVRSYHIYDYYNVHSYYGQEFTVPGSKSTATISGLKPGVSYAIYVGAVNEKQLGPISINYRT
B24: SEQ ID NO 238 (designed binder)
chain: VSDVPRDLEVVAATPTSLLISWDAPAVTVRIYYIAYGYYPGWGRAGSQEFTVPGSKSTATISGLKPGVTYGISVSAVEERRKVPISINYRT
B25: SEQ ID NO 245 (designed binder)
chain: NVSPPRRARVTDATETTITISWRTKTETITDFGVVASPYLGQGIQRTIKPDVRSYTITGLQPGTAYSIKLHTLHVHDYYPVVIDAST
B26: SEQ ID NO 210 (designed binder)
chain: VSDVPRDLEVVAATPTSLLISWDAPAVTVRKYYITYYRGRSGNQEFTVPGSKSTATISGLKPGVKYHILVSAVKYPFRRLPISINYRT
B27: SEQ ID NO 234 (designed binder)
chain: VSDVPRDLEVVAATPTSLLISWDAPAVTVRSYRIMYSGYYAWEYSRQEFTVPGSKSTATISGLKPGVIYAIHVSAVVTNWEGPISINYRT
B28: SEQ ID NO 229 (designed binder)
chain: VSDVPRDLEVVAATPTSLLISWDAPAVTVRTYYIGYGMYTYGQEFTVPGSKSTTTISGLKPGVVYDIYVWAVGFGRYVDPISINYRT
B29: SEQ ID NO 213 (designed binder)
chain: VSDVPRDLEVVAATPTSLLISWDAPAVTVRGYSIKYGSTISADQEFTVPGSKSTATISGLKPGVFYVIMVWAVYYAYANYPISINYRT
B30: SEQ ID NO 227 (designed binder)
chain: VSDVPRDLEVVAATPTSLLISWDAPAVTVRTYQIEYVSSYYRWTQEFTVPGSKSTATISGLKPGVVYFIYVAAVRDGPNDPISINYRT
B31: SEQ ID NO 249 (designed binder)
chain: NVSPPRRARVTDATETTITISWRTKTETITYFGVRAYPTYRSSIQRTIKPDVRSYTITGLQPGTLYRISLYTLDSAGYNPVVIDAST
B32: SEQ ID NO 237 (designed binder)
chain: VSDVPRDLEVVAATPTSLLISWDAPAVTVRNYSIKYKYIPYVSHQEFTVPGSKSTATISGLKPGVTYSIRVQAVYYLIERYPISINYRT
B33: SEQ ID NO 233 (designed binder)
chain: VSDVPRDLEVVAATPTSLLISWDAPAVTVRYYWIQYYIYYSRGTQEFTVPGSKSTATISGLKPGVNYSIGVQAVQAYFGEPISINYRT
B34: SEQ ID NO 225 (designed binder)
chain: VSDVPRDLEVVAAAPTSLLISWDAPAVTVRKYYIWYGYSYFVAYSSYQEFTVPGSKSTATISGLKPGVRYYIGVLAVKYPGDYYPISINYRT
B35: SEQ ID NO 224 (designed binder)
chain: VSDVPRDLEVVAATPTSLLISWDAPAVTVRYYSIAYWQLYLPVQEFTVPGSKSTATISGLKPGVSYGITVEAVMSGYSIYPISINYRT
B36: SEQ ID NO 246 (designed binder)
chain: NVSPPRRARVTDATETTITISWRTKTETITYFYVAADPTEDGKIQRTIKPDVRSYTITGLQPGTYYTIHLRTLYYLVAVPVVIDAST
B37: SEQ ID NO 216 (designed binder)
chain: VSDVPRDLEVVAATPTSLLISWDAPAVTVREYSIYHSWTLVYRRQEFTVPGSKSTATISGLKPGVNYYIYVGAVDNGYGPDPISINYRT
B38: SEQ ID NO 232 (designed binder)
chain: VSDVPRDLEVVAATPTSLLISWDAPAVTVRGYGIYYGDTGDTQEFTVPGSKSTATISGLKPGVMYSIVVFAVEWYMWQPISINYRT
B39: SEQ ID NO 243 (designed binder)
chain: NVSPPRRARVTDATETTITISWRTKTETITLFEVYADPQVSNGTYIQRTIKPDVRSYTITGLQPGTYYRIGLYTLSDYEKSTPVVIDAST
B40: SEQ ID NO 240 (designed binder)
chain: NVSPPRRARVTDATETTITISWRTKTETITDFEVAALPMVSTGIQRTIKPDVRSYTITGLQPGTTYYISLYTLDDDGPGTPVVIDAST

Target: T1, human serum albumin (human, UniProt P02768 25-609)
T1 construct: also called HSA
T1 sequence (P02768 25-609 limits assumed): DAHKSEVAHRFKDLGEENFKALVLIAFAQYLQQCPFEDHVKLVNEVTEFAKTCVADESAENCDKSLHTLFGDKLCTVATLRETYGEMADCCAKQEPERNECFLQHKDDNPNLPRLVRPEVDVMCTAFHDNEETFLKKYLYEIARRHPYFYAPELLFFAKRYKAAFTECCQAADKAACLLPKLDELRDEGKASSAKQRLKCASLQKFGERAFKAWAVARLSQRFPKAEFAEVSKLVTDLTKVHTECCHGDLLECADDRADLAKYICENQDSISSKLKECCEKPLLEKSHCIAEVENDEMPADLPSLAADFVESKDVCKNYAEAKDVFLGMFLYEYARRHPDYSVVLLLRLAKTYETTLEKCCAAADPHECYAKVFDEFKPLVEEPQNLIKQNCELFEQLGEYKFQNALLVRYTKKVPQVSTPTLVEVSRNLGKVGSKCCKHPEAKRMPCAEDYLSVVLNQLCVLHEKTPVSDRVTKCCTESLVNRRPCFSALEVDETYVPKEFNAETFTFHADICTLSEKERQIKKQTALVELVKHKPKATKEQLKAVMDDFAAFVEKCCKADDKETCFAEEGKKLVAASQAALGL
Assay: cradle library selection hit

Binding result, binds:
B1
B2
B3
B4
B5
B6
B7
B8
B9
B10
B11
B12
B13
B14
B15
B16
B17
B18
B19
B20
B21
B22
B23
B24
B25
B26
B27
B28
B29
B30
B31
B32
B33
B34
B35
B36
B37
B38
B39
B40
